Assay results from the supplement of paper PMC7877785.
± gives the uncertainty stated by the source.

Assay: self-splicing fitness, log relative to wild type (ln ratio); higher = more splicing; Tetrahymena group I intron in knt gene, E. coli kanamycin selection, DiMSum; sequences stand for … in CUCUCU…GGAGGGAAAAGUUAUCAGGCAUGCACCUGGUAGCUAGUCUUUAAACCAAUAGAUUGCAUCGGUUUAAAAGGCAAGACCGUCAAAUUGCGGGAAAGGGGUCAACAGCCGUUCAGUACCAAGUCUCAGGGGAAACUUUGAGAUGGCCUUGCAAAGGGUAUGGUAAUAAGCUGACGGACAUGGUCCUAACCACGCAGCCAAGUCCUAAGUCAACAGAUCUUCUGUUGAUAUGGAUGCAGUUCACAGACUAAAUGUCGGUCGGGGAAGAUGUAUUCUUCUCAUAAGAUAUAGUCGGACCUCUCCUUAAUGGGAGCUAGCGGAUGAAGUGAUGCAACACUGGAGCCGCUGGGAACUAAUUUGUAUGCGAAAGUAUAUUGAUUAGUUUUGGAGUACUCGUGGUCG
How it was run: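 The eight P1ex-region nucleotides of an intron in the knt kanamycin-resistance gene on pET-22b(+) were all randomised and the library put into E. coli BL21(DE3). Six replicate transformations were grown overnight at 37°C or 30°C on LB agar with or without 25 μg/mL kanamycin, together with 100 μg/mL carbenicillin, 50 μM IPTG and 0.2% rhamnose. Colonies were pooled and amplicon-sequenced on an Illumina HiSeq 2500. Fitness from DiMSum is the error-weighted combination of wild-type-normalised replicate fold changes, kanamycin over none.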

Row | Sequence | self-splicing fitness (ln) (30 °C) | self-splicing fitness (ln) (37 °C)
1 | GGGUAGCAAUAUUACGGCGG | -2.35 ± 0.24 | -2.12 ± 0.28
2 | UCACAGCAAUAUUACGAAUU | -4.34 ± 0.22 | -2.4 ± 0.16
3 | AGUCAGCAAUAUUACGUGUU | -0.875 ± 0.061 | -0.392 ± 0.096
4 | CGAAAGCAAUAUUACGAAGG | -1.05 ± 0.11 | -1.03 ± 0.16
5 | CUCCAGCAAUAUUACGCGCA | -3.34 ± 0.31 | -2.56 ± 0.49
6 | UUCGAGCAAUAUUACGUCAG | -3.92 ± 0.43 | 0.987 ± 0.26
7 | CGCGAGCAAUAUUACGAGUG | -3.46 ± 0.31 | -1.78 ± 0.2
8 | UUUAAGCAAUAUUACGCGUU | -2.79 ± 0.19 | -2.51 ± 0.23
9 | UCCAAGCAAUAUUACGGUGC | -3.58 ± 0.14 | -2.44 ± 0.12
10 | AUAUAGCAAUAUUACGGAGG | -3.24 ± 0.45 | –
11 | UCAGAGCAAUAUUACGUCCA | -3.75 ± 0.47 | -2.25 ± 0.39
12 | GGCUAGCAAUAUUACGGAGG | -3.21 ± 0.26 | -1.58 ± 0.2
13 | CGCGAGCAAUAUUACGAGUU | -3.3 ± 0.2 | -3.19 ± 0.26
14 | GGACAGCAAUAUUACGGUCA | -0.242 ± 0.046 | 0.817 ± 0.07
15 | GAAGAGCAAUAUUACGGCUA | -1.5 ± 0.15 | -0.512 ± 0.15
16 | UCGUAGCAAUAUUACGCUCA | -0.522 ± 0.13 | -0.556 ± 0.16
17 | GUAAAGCAAUAUUACGCAUA | -1.1 ± 0.098 | -0.728 ± 0.11
18 | GCGGAGCAAUAUUACGCGUA | -2.77 ± 0.29 | -1.53 ± 0.15
19 | CUAUAGCAAUAUUACGCUAU | -2.77 ± 0.15 | -1.72 ± 0.27
20 | UGUUAGCAAUAUUACGGGGU | -2.47 ± 0.26 | –
21 | GCCCAGCAAUAUUACGUACA | -2.17 ± 0.1 | -0.789 ± 0.096
22 | AAGGAGCAAUAUUACGGUUA | -2.54 ± 0.34 | –
23 | CCAGAGCAAUAUUACGUGCG | -1.59 ± 0.077 | -0.888 ± 0.097
24 | CCGGAGCAAUAUUACGCAUU | -2.9 ± 0.39 | -1.81 ± 0.45
25 | CGGAAGCAAUAUUACGCUUC | -3.81 ± 0.35 | –

Row | Sequence | self-splicing fitness (ln) (30 °C) | self-splicing fitness (ln) (37 °C)
26 | CCAUAGCAAUAUUACGCGCG | -0.974 ± 0.091 | -0.0324 ± 0.1
27 | AUUAAGCAAUAUUACGUAGG | -2.34 ± 0.18 | -1.81 ± 0.29
28 | UACGAGCAAUAUUACGGUCG | -0.828 ± 0.076 | -0.0425 ± 0.099
29 | AGGCAGCAAUAUUACGCCCG | -1.26 ± 0.12 | -0.431 ± 0.2
30 | CUUGAGCAAUAUUACGAAUU | -3.53 ± 0.33 | -3.19 ± 0.47
31 | CGUAAGCAAUAUUACGCAUA | -3.73 ± 0.34 | -3.16 ± 0.21
32 | GAGCAGCAAUAUUACGGAGC | -3.14 ± 0.13 | -0.471 ± 0.11
33 | GAUAAGCAAUAUUACGCGGU | -3.19 ± 0.25 | -1.01 ± 0.19
34 | GUCGAGCAAUAUUACGUUAG | -2.95 ± 0.27 | -1.2 ± 0.2
35 | UAGUAGCAAUAUUACGGACU | -0.0123 ± 0.18 | 0.484 ± 0.15
36 | GGUCAGCAAUAUUACGAGCG | 0.269 ± 0.081 | -0.0123 ± 0.094
37 | GUGGAGCAAUAUUACGGUCG | -4.21 ± 0.43 | -1.5 ± 0.45
38 | AAUAAGCAAUAUUACGGUUU | -0.628 ± 0.064 | -0.165 ± 0.092
39 | AUGUAGCAAUAUUACGCGUG | -1.44 ± 0.12 | -0.836 ± 0.12
40 | CUUUAGCAAUAUUACGAGAG | -4.26 ± 0.34 | -2.03 ± 0.28
41 | AGUCAGCAAUAUUACGACGG | -0.725 ± 0.067 | -0.096 ± 0.1
42 | ACCUAGCAAUAUUACGGGCU | -1.51 ± 0.076 | -1.35 ± 0.094
43 | UGAAAGCAAUAUUACGUAAG | -0.503 ± 0.087 | -0.0639 ± 0.12
44 | GGAGAGCAAUAUUACGUUGG | -4.09 ± 0.47 | -2.64 ± 0.36
45 | CGACAGCAAUAUUACGGUUC | -2.59 ± 0.1 | -2.24 ± 0.13
46 | UAAGAGCAAUAUUACGUAAC | -5.23 ± 0.45 | -1.44 ± 0.18
47 | GUUCAGCAAUAUUACGCUUC | -0.641 ± 0.11 | -0.661 ± 0.14
48 | ACCUAGCAAUAUUACGGGAA | -1.62 ± 0.11 | -0.345 ± 0.11
49 | CACGAGCAAUAUUACGUAAA | – | -1.83 ± 0.21
50 | GAUAAGCAAUAUUACGUCGG | -3.81 ± 0.35 | -3.35 ± 0.28

Row | Sequence | self-splicing fitness (ln) (30 °C) | self-splicing fitness (ln) (37 °C)
51 | CUCUAGCAAUAUUACGACGA | -2.13 ± 0.22 | -0.928 ± 0.16
52 | CUGCAGCAAUAUUACGUCCC | -1.66 ± 0.42 | –
53 | UGUCAGCAAUAUUACGGGAC | -4.31 ± 0.23 | -2.93 ± 0.34
54 | CCCGAGCAAUAUUACGAGGC | -2.89 ± 0.28 | -2.47 ± 0.27
55 | AUUGAGCAAUAUUACGUCGG | -4.24 ± 0.46 | -1.68 ± 0.39
56 | GGGGAGCAAUAUUACGGUUA | -1.34 ± 0.26 | -2.75 ± 0.31
57 | GGCCAGCAAUAUUACGGAAC | -0.685 ± 0.1 | -0.981 ± 0.14
58 | UCGAAGCAAUAUUACGUUGA | -2.05 ± 0.099 | -2.63 ± 0.13
59 | UCGGAGCAAUAUUACGUGCG | -2.06 ± 0.093 | -1.32 ± 0.11
60 | GGUUAGCAAUAUUACGCCAA | -1.42 ± 0.34 | -2.43 ± 0.33
61 | UUUUAGCAAUAUUACGAAAG | -2.72 ± 0.2 | -0.437 ± 0.15
62 | CCUAAGCAAUAUUACGGUGA | -3.89 ± 0.25 | -2.28 ± 0.16
63 | CUCGAGCAAUAUUACGUCGG | -1.37 ± 0.15 | -0.674 ± 0.21
64 | UGACAGCAAUAUUACGUUAG | -1.01 ± 0.066 | -0.987 ± 0.089
65 | UGUUAGCAAUAUUACGGAUU | -2.53 ± 0.16 | -0.414 ± 0.13
66 | CCUCAGCAAUAUUACGGUCU | -3.73 ± 0.25 | -2.56 ± 0.27
67 | GAUAAGCAAUAUUACGUUUA | -1.59 ± 0.12 | -0.982 ± 0.12
68 | AAUGAGCAAUAUUACGGAAA | -2.99 ± 0.48 | -1.86 ± 0.31
69 | UCCAAGCAAUAUUACGGAUC | -3.49 ± 0.15 | -2.9 ± 0.16
70 | CGCCAGCAAUAUUACGCGUC | -3.41 ± 0.17 | -2.33 ± 0.15
71 | GCGCAGCAAUAUUACGGCCA | -0.728 ± 0.12 | -1.03 ± 0.12
72 | GUACAGCAAUAUUACGAUCG | -1.67 ± 0.12 | -0.932 ± 0.16
73 | GACUAGCAAUAUUACGCUGA | -1.16 ± 0.14 | -0.638 ± 0.14
74 | GGCAAGCAAUAUUACGGUCC | -2.95 ± 0.15 | -2.1 ± 0.17
75 | CGCAAGCAAUAUUACGAGCA | -0.102 ± 0.1 | 0.368 ± 0.14

Row | Sequence | self-splicing fitness (ln) (30 °C) | self-splicing fitness (ln) (37 °C)
76 | ACAUAGCAAUAUUACGACAA | -0.573 ± 0.12 | -0.73 ± 0.12
77 | CAGUAGCAAUAUUACGUGGU | -2.56 ± 0.13 | -2.54 ± 0.17
78 | CCUAAGCAAUAUUACGUGGG | -3.51 ± 0.16 | -2.5 ± 0.15
79 | GUAGAGCAAUAUUACGUGUA | -2.77 ± 0.2 | -2.53 ± 0.28
80 | UGUCAGCAAUAUUACGUUGU | -4.25 ± 0.27 | -2.3 ± 0.16
81 | AUAGAGCAAUAUUACGGAAC | -3.66 ± 0.27 | -1.92 ± 0.24
82 | ACGUAGCAAUAUUACGAUCG | -1.15 ± 0.1 | -0.0917 ± 0.12
83 | GGACAGCAAUAUUACGUUAA | -0.204 ± 0.07 | 0.00356 ± 0.08
84 | CGCAAGCAAUAUUACGUGAC | -2.74 ± 0.2 | -2.5 ± 0.3
85 | UAACAGCAAUAUUACGAAGC | -3.19 ± 0.19 | -2.3 ± 0.27
86 | AUUCAGCAAUAUUACGCUGC | -2.3 ± 0.13 | -2.35 ± 0.19
87 | UGAGAGCAAUAUUACGAUAG | -3.19 ± 0.38 | -2.11 ± 0.26
88 | GUUCAGCAAUAUUACGUAGU | -0.247 ± 0.11 | 0.369 ± 0.11
89 | UGGUAGCAAUAUUACGUUGA | -0.502 ± 0.17 | -0.66 ± 0.15
90 | AACAAGCAAUAUUACGGUCA | -0.52 ± 0.043 | 0.199 ± 0.062
91 | CACAAGCAAUAUUACGACUG | -0.95 ± 0.046 | 0.337 ± 0.064
92 | GAAAAGCAAUAUUACGACAA | -0.627 ± 0.084 | -0.496 ± 0.096
93 | CGCGAGCAAUAUUACGUCUC | -3.71 ± 0.35 | -2.28 ± 0.33
94 | GACUAGCAAUAUUACGGCUA | -2.4 ± 0.17 | -0.921 ± 0.12
95 | AGCAAGCAAUAUUACGGGGC | -3.92 ± 0.29 | -2.89 ± 0.3
96 | UUACAGCAAUAUUACGUCGU | -3.81 ± 0.16 | -2.26 ± 0.14
97 | GAGCAGCAAUAUUACGGUAU | -2.9 ± 0.11 | -1.34 ± 0.1
